Measured values: patent publication US20220324939A1 (Regeneron, published 2022)

T1: MAGE-A4 peptide on HLA-A*02:01 (human)
T1 peptide: KVLEHVVRV

B1: PN41746 (TCR, V domains shown)
V domain 1: AQTVTQSQPEMSVQEAETVTLSCTYDTSESDYYLFWYKQPPSRQMILVIRQEAYKQQNATENRFSVNFQKAAKSFSLKISDSQLGDAAMYFCAYRSATGNQFYFGTGTSLTVIP
V domain 2: DVKVTQSSRYLVKRTGEKVFLECVQDMDHENMFWYRQDPGLGLRLIYFSYDVKMKEKGDIPEGYSVSREKKERFSLILESASTNQTSMYLCASSLWGLNTEAFFGQGTRLTVV
notes: stained with anti-mouse TCR constant region H57-597; full-length chains on transfected CHO cells; also called TCR No. 28
B2: PN41523 (TCR, V domains shown)
V domain 1: AQTVTQSQPEMSVQEAETVTLSCTYDTSESDYYLFWYKQPPSRQMILVIRQEAYKQQNATENRFSVNFQKAAKSFSLKISDSQLGDAAMYFCAYRSAPGNQFYFGTGTSLTVIP
V domain 2: DVKVTQSSRYLVKRTGEKVFLECVQDMDHENMFWYRQDPGLGLRLIYFSYDVKMKEKGDIPEGYSVSREKKERFSLILESASTNQTSMYLCASSLWGLNTEAFFGQGTRLTVV
notes: stained with anti-mouse TCR constant region H57-597; full-length chains on transfected CHO cells; also called TCR No. 7
B3: PN41577 (TCR, V domains shown)
V domain 1: AQTVTQSQPEMSVQEAETVTLSCTYDTSESDYYLFWYKQPPSRQMILVIRQEAYKQQNATENRFSVNFQKAAKSFSLKISDSQLGDAAMYFCAYRSAPGNQFYFGTGTSLTVIP
V domain 2: DVKVTQSSRYLVKRTGEKVFLECVQDMDHENMFWYRQDPGLGLRLIYFSYDVKMKEKGDIPEGYSVSREKKERFSLILESASTNQTSMYLCASSLWGTNEKLFFGSGTQLSVL
notes: stained with anti-mouse TCR constant region H57-597; full-length chains on transfected CHO cells; also called TCR No. 16
B4: PN41617 (TCR, V domains shown)
V domain 1: AQTVTQSQPEMSVQEAETVTLSCTYDTSESDYYLFWYKQPPSRQMILVIRQEAYKQQNATENRFSVNFQKAAKSFSLKISDSQLGDAAMYFCAYRSASGNQFYFGTGTSLTVIP
V domain 2: DVKVTQSSRYLVKRTGEKVFLECVQDMDHENMFWYRQDPGLGLRLIYFSYDVKMKEKGDIPEGYSVSREKKERFSLILESASTNQTSMYLCASSLWGMNTEAFFGQGTRLTVV
notes: stained with anti-mouse TCR constant region H57-597; full-length chains on transfected CHO cells; also called TCR No. 20
B5: PN41607 (TCR, V domains shown)
V domain 1: AQTVTQSQPEMSVQEAETVTLSCTYDTSESDYYLFWYKQPPSRQMILVIRQEAYKQQNATENRFSVNFQKAAKSFSLKISDSQLGDAAMYFCAYRSASGNQFYFGTGTSLTVIP
V domain 2: DVKVTQSSRYLVKRTGEKVFLECVQDMDHENMFWYRQDPGLGLRLIYFSYDVKMKEKGDIPEGYSVSREKKERFSLILESASTNQTSMYLCASSLWGTNEKLFFGSGTQLSVL
notes: stained with anti-mouse TCR constant region H57-597; full-length chains on transfected CHO cells; also called TCR No. 17
B6: PN41573 (TCR, V domains shown)
V domain 1: AQTVTQSQPEMSVQEAETVTLSCTYDTSESDYYLFWYKQPPSRQMILVIRQEAYKQQNATENRFSVNFQKAAKSFSLKISDSQLGDAAMYFCAYRSATGNQFYFGTGTSLTVIP
V domain 2: DVKVTQSSRYLVKRTGEKVFLECVQDMDHENMFWYRQDPGLGLRLIYFSYDVKMKEKGDIPEGYSVSREKKERFSLILESASTNQTSMYLCASSLWGTNEKLFFGSGTQLSVL
notes: stained with anti-mouse TCR constant region H57-597; full-length chains on transfected CHO cells; also called TCR No. 15
B7: PN41559 (TCR, V domains shown)
V domain 1: AQTVTQSQPEMSVQEAETVTLSCTYDTSESDYYLFWYKQPPSRQMILVIRQEAYKQQNATENRFSVNFQKAAKSFSLKISDSQLGDAAMYFCAYRSATGNQFYFGTGTSLTVIP
V domain 2: DVKVTQSSRYLVKRTGEKVFLECVQDMDHENMFWYRQDPGLGLRLIYFSYDVKMKEKGDIPEGYSVSREKKERFSLILESASTNQTSMYLCASSLWGWGTEAFFGQGTRLTVV
notes: stained with anti-mouse TCR constant region H57-597; full-length chains on transfected CHO cells; also called TCR No. 12
B8: PN41608 (TCR, V domains shown)
V domain 1: AQTVTQSQPEMSVQEAETVTLSCTYDTSESDYYLFWYKQPPSRQMILVIRQEAYKQQNATENRFSVNFQKAAKSFSLKISDSQLGDAAMYFCAYRSAPGNQFYFGTGTSLTVIP
V domain 2: DVKVTQSSRYLVKRTGEKVFLECVQDMDHENMFWYRQDPGLGLRLIYFSYDVKMKEKGDIPEGYSVSREKKERFSLILESASTNQTSMYLCASSFWGWNTEAFFGQGTRLTVV
notes: stained with anti-mouse TCR constant region H57-597; full-length chains on transfected CHO cells; also called TCR No. 18
B9: PN41822 (TCR, V domains shown)
V domain 1: AQTVTQSQPEMSVQEAETVTLSCTYDTSESDYYLFWYKQPPSRQMILVIRQEAYKQQNATENRFSVNFQKAAKSFSLKISDSQLGDAAMYFCAYRSATGNQFYFGTGTSLTVIP
V domain 2: DVKVTQSSRYLVKRTGEKVFLECVQDMDHENMFWYRQDPGLGLRLIYFSYDVKMKEKGDIPEGYSVSREKKERFSLILESASTNQTSMYLCASSLWALNTEAFFGQGTRLTVV
notes: stained with anti-mouse TCR constant region H57-597; full-length chains on transfected CHO cells; also called TCR No. 32
B10: PN41702 (TCR, V domains shown)
V domain 1: AQTVTQSQPEMSVQEAETVTLSCTYDTSESDYYLFWYKQPPSRQMILVIRQEAYKQQNATENRFSVNFQKAAKSFSLKISDSQLGDAAMYFCAYRSATGNQFYFGTGTSLTVIP
V domain 2: DVKVTQSSRYLVKRTGEKVFLECVQDMDHENMFWYRQDPGLGLRLIYFSYDVKMKEKGDIPEGYSVSREKKERFSLILESASTNQTSMYLCASSLWAVNEKLFFGSGTQLSVL
notes: stained with anti-mouse TCR constant region H57-597; full-length chains on transfected CHO cells; also called TCR No. 25
B11: PN41494 (TCR, V domains shown)
V domain 1: AQTVTQSQPEMSVQEAETVTLSCTYDTSESDYYLFWYKQPPSRQMILVIRQEAYKQQNATENRFSVNFQKAAKSFSLKISDSQLGDAAMYFCAYRSATGNQFYFGTGTSLTVIP
V domain 2: DVKVTQSSRYLVKRTGEKVFLECVQDMDHENMFWYRQDPGLGLRLIYFSYDVKMKEKGDIPEGYSVSREKKERFSLILESASTNQTSMYLCASSLWGWNSPLHFGNGTRLTVT
notes: stained with anti-mouse TCR constant region H57-597; full-length chains on transfected CHO cells; also called TCR No. 2
B12: PN41518 (TCR, V domains shown)
V domain 1: AQTVTQSQPEMSVQEAETVTLSCTYDTSESDYYLFWYKQPPSRQMILVIRQEAYKQQNATENRFSVNFQKAAKSFSLKISDSQLGDAAMYFCAYRSAPGNQFYFGTGTSLTVIP
V domain 2: DVKVTQSSRYLVKRTGEKVFLECVQDMDHENMFWYRQDPGLGLRLIYFSYDVKMKEKGDIPEGYSVSREKKERFSLILESASTNQTSMYLCASSLWATNEKLFFGSGTQLSVL
notes: stained with anti-mouse TCR constant region H57-597; full-length chains on transfected CHO cells; also called TCR No. 5
B13: PN41513 (TCR, V domains shown)
V domain 1: AQTVTQSQPEMSVQEAETVTLSCTYDTSESDYYLFWYKQPPSRQMILVIRQEAYKQQNATENRFSVNFQKAAKSFSLKISDSQLGDAAMYFCAYRSAPGNQFYFGTGTSLTVIP
V domain 2: DVKVTQSSRYLVKRTGEKVFLECVQDMDHENMFWYRQDPGLGLRLIYFSYDVKMKEKGDIPEGYSVSREKKERFSLILESASTNQTSMYLCASSLFATNEKLFFGSGTQLSVL
notes: stained with anti-mouse TCR constant region H57-597; full-length chains on transfected CHO cells; also called TCR No. 3
B14: PN41690 (TCR, V domains shown)
V domain 1: AQTVTQSQPEMSVQEAETVTLSCTYDTSESDYYLFWYKQPPSRQMILVIRQEAYKQQNATENRFSVNFQKAAKSFSLKISDSQLGDAAMYFCAYRSAIGNQFYFGTGTSLTVIP
V domain 2: DVKVTQSSRYLVKRTGEKVFLECVQDMDHENMFWYRQDPGLGLRLIYFSYDVKMKEKGDIPEGYSVSREKKERFSLILESASTNQTSMYLCASSLWGVNTEAFFGQGTRLTVV
notes: stained with anti-mouse TCR constant region H57-597; full-length chains on transfected CHO cells; also called TCR No. 24
B15: PN41568 (TCR, V domains shown)
V domain 1: AQTVTQSQPEMSVQEAETVTLSCTYDTSESDYYLFWYKQPPSRQMILVIRQEAYKQQNATENRFSVNFQKAAKSFSLKISDSQLGDAAMYFCAYRSARGNQFYFGTGTSLTVIP
V domain 2: DVKVTQSSRYLVKRTGEKVFLECVQDMDHENMFWYRQDPGLGLRLIYFSYDVKMKEKGDIPEGYSVSREKKERFSLILESASTNQTSMYLCASSLWGTNEKLFFGSGTQLSVL
notes: stained with anti-mouse TCR constant region H57-597; full-length chains on transfected CHO cells; also called TCR No. 14
B16: PN41520 (TCR, V domains shown)
V domain 1: AQTVTQSQPEMSVQEAETVTLSCTYDTSESDYYLFWYKQPPSRQMILVIRQEAYKQQNATENRFSVNFQKAAKSFSLKISDSQLGDAAMYFCAYRSARGNQFYFGTGTSLTVIP
V domain 2: DVKVTQSSRYLVKRTGEKVFLECVQDMDHENMFWYRQDPGLGLRLIYFSYDVKMKEKGDIPEGYSVSREKKERFSLILESASTNQTSMYLCASSLWGVNSPLHFGNGTRLTVT
notes: stained with anti-mouse TCR constant region H57-597; full-length chains on transfected CHO cells; also called TCR No. 6
B17: PN41475 (TCR, V domains shown)
V domain 1: AQTVTQSQPEMSVQEAETVTLSCTYDTSESDYYLFWYKQPPSRQMILVIRQEAYKQQNATVNRFSVNFQKAAKSFSLKISDSQLGDAAMYFCAYRSATGNQFYFGTGTSLTVIP
V domain 2: DVKVTQSSRYLVKRTGEKVFLECVQDMDHENMFWYRQDPGLGLRLIYFSYDVKMKEKGDIPEGYSVSREKKERFSLILESASTNQTSMYLCASSLWGSNTEAFFGQGTRLTVV
notes: stained with anti-mouse TCR constant region H57-597; full-length chains on transfected CHO cells; also called TCR No. 1
B18: PN41565 (TCR, V domains shown)
V domain 1: AQTVTQSQPEMSVQEAETVTLSCTYDTSESDYYLFWYKQPPSRQMILVIRQEAYKQQNATENRFSVNFQKAAKSFSLKISDSQLGDAAMYFCAYRSPTGNQFYFGTGTSLTVIP
V domain 2: DVKVTQSSRYLVKRTGEKVFLECVQDMDHENMFWYRQDPGLGLRLIYFSYDVKMKEKGDIPEGYSVSREKKERFSLILESASTNQTSMYLCASSLWAMNTEAFFGQGTRLTVV
notes: stained with anti-mouse TCR constant region H57-597; full-length chains on transfected CHO cells; also called TCR No. 13
B19: PN41532 (TCR, V domains shown)
V domain 1: AQTVTQSQPEMSVQEAETVTLSCTYDTSESDYYLFWYKQPPSRQMILVIRQEAYKQQNATENRFSVNFQKAAKSFSLKISDSQLGDAAMYFCAYRSAEGNQFYFGTGTSLTVIP
V domain 2: DVKVTQSSRYLVKRTGEKVFLECVQDMDHENMFWYRQDPGLGLRLIYFSYDVKMKEKGDIPEGYSVSREKKERFSLILESASTNQTSMYLCASSLWGLNTEAFFGQGTRLTVV
notes: stained with anti-mouse TCR constant region H57-597; full-length chains on transfected CHO cells; also called TCR No. 8

How the values were obtained:
[1] = molecular target: T2, soluble HLA-A2 (…) tetramer (human); test: flow cytometry, HLA-A2 (…) tetramer staining of CHO cells transfected with the TCR
T2 construct: Bought tetramer reagent; also called MAGE-A4/HLA tetramer reagent; HLA-A02:01 MAGE-A4 tetramer
Method: Samples were then analyzed on an LSRFortessa X-20 (BD Biosciences, San Jose, Calif.).

[2] = molecular target: T1, MAGE-A4 peptide on HLA-A*02:01; test: multimer staining

| Binder | % in Ag+ gate >250 MFI, >1% [1] [%] | binding result [2] |
| --- | --- | --- |
| B1 | 90.2 | recognises |
| B2 | 90.5 | recognises |
| B3 | 80 | recognises |
| B4 | 90.6 | recognises |
| B5 | 81 | recognises |
| B6 | 85.7 | recognises |
| B7 | 74.3 | recognises |
| B8 | 77 | recognises |
| B9 | 63.5 | recognises |
| B10 | 8.13 | recognises |
| B11 | 9.24 | recognises |
| B12 | 34.9 | recognises |
| B13 | 29.6 | recognises |
| B14 | 75.3 | recognises |
| B15 | 82.9 | recognises |
| B16 | 16.9 | recognises |
| B17 | 65.5 | recognises |
| B18 | 4.02 | recognises |
| B19 | 85.4 | recognises |
